B1: HDV Ribozyme (parent)
chain: GGCCGGCAUGGUCCCAGCCUCCUCGCUGGCGCCGGCUGGGCAACAUUCCGAGGGGACCGUCCCCUCGGUAAUGGCGAAUGGGACCCA

Variants of: B1
Experiment: self-cleavage, relative activity (ratio to wild type); higher = more cleavage; co-transcriptional

| Variant | self-cleavage |
| --- | --- |
| GGCCGGCAUGGUCCCAGCCUCCUCGCUGGCGCCGGCUGGGCAACAUUCCGAGGGGAGCGUCCCCUCGGUAAUGGCGAAUGAGACCCA [C57G G81A] | 0.509 |
| GGCCGGCAUGGUCCCAGCCUCCUCGCUGGCGCCGGCUGGGCAACAUUCCGAGGGGAGCGUCCCCUCGGUAAUGGCGAAUAGGACCCA [C57G G80A] | 0.208 |
| GGCCGGCAUGGUCCCAGCCUCCUCGCUGGCGCCGGCUGGGCAACAUUCCGAGGGGAGCGUCCCCACGGUAAUGGCGAAUGGGACCCA [C57G U65A] | 1.11 |
| GGCCGGCAUGGUCCCAGCCUCCUCGCUGGCGCCGGCUGGGCAACAUUCCGAGGGGAGCGUCCCCCCGGUAAUGGCGAAUGGGACCCA [C57G U65C] | 0.96 |
| GGCCGGCAUGGUCCCAGCCUCCUCGCUGGCGCCGGCUGGGCAACAUUCCGAGGGGAGCGUCCCCUCGGUAAUGGCGAAUGGGAUCCA [C57G C84U] | 0.721 |
| GGCCGGCAUGGUCCCAGCCUCCUCGCUGGCGCCGGCUGGGCAACAUUCCGAGGGGAGCGUCCCCUCGGGAAUGGCGAAUGGGACCCA [C57G U69G] | 1.2 |
| GGCCGGCAUGGUCCCAGCCUCCUCGCUGGCGCCGGCUGGGCAACAUUCCGAGGGGAGCGUCCCCUCGGCAAUGGCGAAUGGGACCCA [C57G U69C] | 1.06 |
| GGCCGGCAUGGUCCCAGCCUCCUCGCUGGCGCCGGCUGGGCAACAUUCCGAGGGGAGCGUCCCCUCGGAAAUGGCGAAUGGGACCCA [C57G U69A] | 0.767 |
| GGCCGGCAUGGUCCCAGCCUCCUCGCUGGCGCCGGCUGGGCAACAUUCCGAGGGGAGCGUCCCCUCGGUAAUAGCGAAUGGGACCCA [C57G G73A] | 0.658 |
| GGCCGGCAUGGUCCCAGCCUCCUCGCUGGCGCCGGCUGGGCAACAUUCCGAGGGGAGCGUCCCCUCGGUAAUCGCGAAUGGGACCCA [C57G G73C] | 0.495 |
| GGCCGGCAUGGUCCCAGCCUCCUCGCUGGCGCCGGCUGGGCAACAUUCCGAGGGGAGCGUCCCCUCGUUAAUGGCGAAUGGGACCCA [C57G G68U] | 1.01 |
| GGCCGGCAUGGUCCCAGCCUCCUCGCUGGCGCCGGCUGGGCAACAUUCCGAGGGGAGCGUCCCCUCGCUAAUGGCGAAUGGGACCCA [C57G G68C] | 0.831 |
| GGCCGGCAUGGUCCCAGCCUCCUCGCUGGCGCCGGCUGGGCAACAUUCCGAGGGGAGCGUCCCCUCGGUAAUGGCAAAUGGGACCCA [C57G G76A] | 1.04 |
| GGCCGGCAUGGUCCCAGCCUCCUCGCUGGCGCCGGCUGGGCAACAUUCCGAGGGGAGCGUCCCCUCGGUAAUGGCUAAUGGGACCCA [C57G G76U] | 0.984 |
| GGCCGGCAUGGUCCCAGCCUCCUCGCUGGCGCCGGCUGGGCAACAUUCCGAGGGGAGCGUCCCCUCGGUAAUGGCCAAUGGGACCCA [C57G G76C] | 0.895 |
| GGCCGGCAUGGUCCCAGCCUCCUCGCUGGCGCCGGCUGGGCAACAUUCCGAGGGGAUCGUCCCCUCGGUGAUGGCGAAUGGGACCCA [C57U A70G] | 0.967 |

| Variant | self-cleavage |
| --- | --- |
| GGCCGGCAUGGUCCCAGCCUCCUCGCUGGCGCCGGCUGGGCAACAUUCCGAGGGGAGCGUCCCCUCGGUAAUGGCGAAUGGGACCGA [C57G C86G] | 0.831 |
| GGCCGGCAUGGUCCCAGCCUCCUCGCUGGCGCCGGCUGGGCAACAUUCCGAGGGGAGCGUCCCCUCGGUAAUGGCGAAUGGGACCAA [C57G C86A] | 0.656 |
| GGCCGGCAUGGUCCCAGCCUCCUCGCUGGCGCCGGCUGGGCAACAUUCCGAGGGGAGCGUCCCCUCGGUAAUGGCGAAUGGGACCUA [C57G C86U] | 0.815 |
| GGCCGGCAUGGUCCCAGCCUCCUCGCUGGCGCCGGCUGGGCAACAUUCCGAGGGGAGCGUCCCCUCGGUAAUGGCGAAUGGCACCCA [C57G G82C] | 0.306 |
| GGCCGGCAUGGUCCCAGCCUCCUCGCUGGCGCCGGCUGGGCAACAUUCCGAGGGGAGCGUCCCCUCGGUAAUGGCGAAUGGUACCCA [C57G G82U] | 0.317 |
| GGCCGGCAUGGUCCCAGCCUCCUCGCUGGCGCCGGCUGGGCAACAUUCCGAGGGGAGCGUCCCCUCGGUAAUGGCGAAGGGGACCCA [C57G U79G] | 0.506 |
| GGCCGGCAUGGUCCCAGCCUCCUCGCUGGCGCCGGCUGGGCAACAUUCCGAGGGGAGCGUCCCCUCGGUAAAGGCGAAUGGGACCCA [C57G U72A] | 0.635 |
| GGCCGGCAUGGUCCCAGCCUCCUCGCUGGCGCCGGCUGGGCAACAUUCCGAGGGGAGCGUCCCCUCGGUAACGGCGAAUGGGACCCA [C57G U72C] | 0.587 |
| GGCCGGCAUGGUCCCAGCCUCCUCGCUGGCGCCGGCUGGGCAACAUUCCGAGGGGAGCGGCCCCUCGGUAAUGGCGAAUGGGACCCA [C57G U60G] | 0.95 |
| GGCCGGCAUGGUCCCAGCCUCCUCGCUGGCGCCGGCUGGGCAACAUUCCGAGGGGAGCGUCCCCUCGGUAAUGGCGAAUGGGACGCA [C57G C85G] | 1.09 |
| GGCCGGCAUGGUCCCAGCCUCCUCGCUGGCGCCGGCUGGGCAACAUUCCGAGGGGAGCGUCCCCUCGGUAAUGGCGAAUGGGACACA [C57G C85A] | 0.935 |
| GGCCGGCAUGGUCCCAGCCUCCUCGCUGGCGCCGGCUGGGCAACAUUCCGAGGGGAGCGUCCCCUCGGUAAUGACGAAUGGGACCCA [C57G G74A] | 0.277 |
| GGCCGGCAUGGUCCCAGCCUCCUCGCUGGCGCCGGCUGGGCAACAUUCCGAGGGGAGCGUCCCCUCGGUAAUGUCGAAUGGGACCCA [C57G G74U] | 0.388 |
| GGCCGGCAUGGUCCCAGCCUCCUCGCUGGCGCCGGCUGGGCAACAUUCCGAGGGGAGCAUCCCCUCGGUAAUGGCGAAUGGGACCCA [C57G G59A] | 0.997 |
| GGCCGGCAUGGUCCCAGCCUCCUCGCUGGCGCCGGCUGGGCAACAUUCCGAGGGGAGCUUCCCCUCGGUAAUGGCGAAUGGGACCCA [C57G G59U] | 0.978 |
| GGCCGGCAUGGUCCCAGCCUCCUCGCUGGCGCCGGCUGGGCAACAUUCCGAGGGGAGCCUCCCCUCGGUAAUGGCGAAUGGGACCCA [C57G G59C] | 0.969 |
